Test results taken from patent US20050287542A1 (YALE UNIVERSITY, published 2005).
Square brackets hold non-standard residues; d marks the D form. Primed or numbered codes have the meaning given here. Ends that are not written are not given here. * marks the point of attachment. acetamidofluorescein = acetamidofluorescein label attached to the side chain of a C-terminal cysteine residue (made by modifying the cysteine with 5-iodoacetamidofluorescein); acetamidofluorescein″ = acetamidofluorescein (5-iodoacetamidofluorescein attached to the C-terminal Cys); Fluorescein(5-NHCOCH2) = O=C(C*)Nc1ccc2c(c1)C(=O)OC21c2ccc(O)cc2Oc2cc(O)ccc21; pS = N[C@@H](COP(=O)(O)O)C(=O)O

Tests used:
[1] = molecular target: T1, HisKIX (His-tagged CBP KIX domain) (UniProt P45481 586-672); test: fluorescence polarization competition; displaces 25 nM fluorescein-labelled PPKID6^U from 3.0 µM HisKIX
T1 construct: range 586-672; not shown: amino-terminal hexahistidine tag of pET15b
T1 sequence (P45481 586-672): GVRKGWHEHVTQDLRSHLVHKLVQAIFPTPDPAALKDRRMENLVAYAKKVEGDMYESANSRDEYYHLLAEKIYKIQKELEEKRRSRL

[2] = molecular target: T1, HisKIX (His-tagged CBP KIX domain); test: fluorescence polarization competition; displaces 25 nM fluorescein-labelled PPKID4^P from 1.5 µM HisKIX
[3] = molecular target: T1, HisKIX (His-tagged CBP KIX domain); test: fluorescence polarization competition: 25 nM fluorescein-labelled PPKID4^P on 1.5 uM HisKIX, unlabelled KID-AB^P titrated
Description: Each point represents an average of three independent samples; the error bars denote standard error.
6) Fluorescence polarization—Fluorescence polarization experiments were performed with a Photon Technology International QuantaMaster C-60 spectrofluorimeter at 25° C. in a 1 cm pathlength Hellma cuvette. […] Briefly, an aliquot of fluorescently labeled peptide was added to a final concentration of 25-50 nM and the binding reaction was incubated for 30 min at 25° C. Thirty minutes was a sufficient length of time for the binding reaction to reach equilibrium, as judged by an absence of change in the observed polarization value of the sample with the highest HisKIX concentration over 1 h.

[4] = molecular target: carbonic anhydrase II (Sigma); test: fluorescence emission change of labelled peptide, PBS
Chain of carbonic anhydrase II (Sigma) (P00921 2-260): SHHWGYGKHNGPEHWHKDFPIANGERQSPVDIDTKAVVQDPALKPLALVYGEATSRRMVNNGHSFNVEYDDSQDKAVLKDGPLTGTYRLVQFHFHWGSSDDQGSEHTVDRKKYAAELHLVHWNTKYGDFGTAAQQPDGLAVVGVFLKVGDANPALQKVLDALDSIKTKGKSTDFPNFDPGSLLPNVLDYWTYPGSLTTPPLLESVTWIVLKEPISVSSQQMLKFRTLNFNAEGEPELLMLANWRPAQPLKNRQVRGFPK

calmodulin (Sigma) [5] = test: fluorescence emission change of labelled peptide, HEPES/KCl/CaCl2 buffer
calmodulin (Sigma) [6] = test: fluorescence polarization, calmodulin (text differs from Table 2)
Description: 6) Fluorescence polarization—Fluorescence polarization experiments were performed with a Photon Technology International QuantaMaster C-60 spectrofluorimeter at 25° C. in a 1 cm pathlength Hellma cuvette. […] Briefly, an aliquot of fluorescently labeled peptide was added to a final concentration of 25-50 nM and the binding reaction was incubated for 30 min at 25° C. Thirty minutes was a sufficient length of time for the binding reaction to reach equilibrium, as judged by an absence of change in the observed polarization value of the sample with the highest HisKIX concentration over 1 h. […] For specificity measurements, carbonic anhydrase II (Sigma) or calmodulin (Sigma) was used as the target protein in place of HisKIX, and fluorescently labeled peptide was used at a final concentration of 50 nM.

[7] = molecular target: carbonic anhydrase II (Sigma); test: fluorescence polarization, carbonic anhydrase II
CBP KIX variant I657A = molecular target: T2, CBP KIX variant I657A (UniProt P45481 586-665, limits assumed); test: fluorescence polarization
T2 construct: domain: KIX
T2 sequence (P45481 586-665 I657A limits assumed): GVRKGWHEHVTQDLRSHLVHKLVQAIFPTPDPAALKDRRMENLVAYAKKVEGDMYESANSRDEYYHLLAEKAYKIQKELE

CBP KIX variant L603A = molecular target: T3, CBP KIX variant L603A (UniProt P45481 586-665, limits assumed); test: fluorescence polarization
T3 construct: domain: KIX
T3 sequence (P45481 586-665 L603A limits assumed): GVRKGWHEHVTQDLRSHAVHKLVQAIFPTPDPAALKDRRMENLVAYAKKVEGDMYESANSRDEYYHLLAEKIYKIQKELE

CBP KIX variant L599A = molecular target: T4, CBP KIX variant L599A (UniProt P45481 586-665, limits assumed); test: fluorescence polarization
T4 construct: domain: KIX
T4 sequence (P45481 586-665 L599A limits assumed): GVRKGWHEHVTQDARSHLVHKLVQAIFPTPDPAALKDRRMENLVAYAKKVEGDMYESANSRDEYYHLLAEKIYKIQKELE

CBP KIX variant Q661A = molecular target: T5, CBP KIX variant Q661A (UniProt P45481 586-665, limits assumed); test: fluorescence polarization
T5 construct: domain: KIX
T5 sequence (P45481 586-665 Q661A limits assumed): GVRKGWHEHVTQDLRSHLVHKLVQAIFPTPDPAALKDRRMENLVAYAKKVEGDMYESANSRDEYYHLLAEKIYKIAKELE

[8] = molecular target: T6, CBP KIX variant LL652-3AA (UniProt P45481 586-665, limits assumed); test: fluorescence polarization
T6 construct: domain: KIX
T6 sequence (P45481 other isoform, or with tags, fused parts or gaps mutant limits assumed): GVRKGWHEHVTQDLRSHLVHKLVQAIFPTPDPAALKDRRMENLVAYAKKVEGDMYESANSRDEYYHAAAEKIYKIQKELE

CBP KIX variant Y658F = molecular target: T7, CBP KIX variant Y658F (UniProt P45481 586-665, limits assumed); test: fluorescence polarization
T7 construct: domain: KIX
T7 sequence (P45481 586-665 Y658F limits assumed): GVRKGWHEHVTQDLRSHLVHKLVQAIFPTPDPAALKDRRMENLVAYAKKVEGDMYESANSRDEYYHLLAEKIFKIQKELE

CBP KIX variant E655A = molecular target: T8, CBP KIX variant E655A (UniProt P45481 586-665, limits assumed); test: fluorescence polarization
T8 construct: domain: KIX
T8 sequence (P45481 586-665 E655A limits assumed): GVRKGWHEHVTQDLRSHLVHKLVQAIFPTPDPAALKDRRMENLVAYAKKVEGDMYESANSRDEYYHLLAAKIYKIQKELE

CBP KIX variant K606A = molecular target: T9, CBP KIX variant K606A (UniProt P45481 586-665, limits assumed); test: fluorescence polarization
T9 construct: domain: KIX
T9 sequence (P45481 586-665 K606A limits assumed): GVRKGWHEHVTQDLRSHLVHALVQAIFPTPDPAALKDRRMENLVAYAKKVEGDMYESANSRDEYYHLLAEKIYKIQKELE

CBP KIX variant Y658A = molecular target: T10, CBP KIX variant Y658A (UniProt P45481 586-665, limits assumed); test: fluorescence polarization
T10 construct: domain: KIX
T10 sequence (P45481 586-665 Y658A limits assumed): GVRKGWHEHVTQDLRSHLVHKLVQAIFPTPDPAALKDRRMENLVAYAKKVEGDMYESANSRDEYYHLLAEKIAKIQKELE

CBP KIX variant I660A = molecular target: T11, CBP KIX variant I660A (UniProt P45481 586-665, limits assumed); test: fluorescence polarization
T11 construct: domain: KIX
T11 sequence (P45481 586-665 I660A limits assumed): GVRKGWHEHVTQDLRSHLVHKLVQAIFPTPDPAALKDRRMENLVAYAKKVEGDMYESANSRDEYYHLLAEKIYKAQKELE

[9] = molecular target: T12, CBP KIX variant Y650A (Example 20) (UniProt P45481 586-665, limits assumed); test: fluorescence polarization
T12 construct: domain: KIX
T12 sequence (P45481 586-665 Y650A limits assumed): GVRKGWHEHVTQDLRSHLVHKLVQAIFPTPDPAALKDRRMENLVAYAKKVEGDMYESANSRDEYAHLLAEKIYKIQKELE

CBP KIX variant K662A = molecular target: T13, CBP KIX variant K662A (UniProt P45481 586-665, limits assumed); test: fluorescence polarization
T13 construct: domain: KIX
T13 sequence (P45481 586-665 K662A limits assumed): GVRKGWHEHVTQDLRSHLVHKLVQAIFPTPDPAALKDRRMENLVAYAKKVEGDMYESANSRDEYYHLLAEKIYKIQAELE

calmodulin (Sigma) [10] = test: fluorescence polarization, calmodulin
Description: (§1) Binding reactions containing serially diluted target protein and 25-50 nM of fluorescein-labeled peptides (peptide^Flu) were incubated for 30 min at 25° C. Each point represents the average polarization of two to three independent samples; error bars denote standard error. […] Circular and triangular symbols indicate that HisKIX was used as the target protein; the symbols are colored as in FIG. 9 with the exception of the points for peptide C^U, which are in orange for clarity. Square symbols indicate that carbonic anhydrase was used as the target protein. […] Circular and triangular symbols indicate that HisKIX was used as the target protein, and the symbols are colored as in FIG. 9. Square symbols indicate that calmodulin was used as the target protein.

[11] = molecular target: T14, wild type CBP KIX (Example 20) (UniProt P45481 586-665, limits assumed); test: fluorescence polarization
T14 construct: domain: KIX
T14 sequence (P45481 586-665 limits assumed): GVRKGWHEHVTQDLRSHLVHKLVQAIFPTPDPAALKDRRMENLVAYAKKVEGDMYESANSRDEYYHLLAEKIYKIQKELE

[12] = molecular target: T1, HisKIX (His-tagged CBP KIX domain); test: fluorescence polarization
[13] = molecular target: carbonic anhydrase II (Sigma); test: fluorescence polarization
Description: as §1

calmodulin (Sigma) [14] = test: fluorescence polarization
Description: as §1

[15] = molecular target: T15, GST-KIXY650A (Y650A variant of CBP KIX) (UniProt P45481 586-665, limits assumed); test: fluorescence polarization
T15 construct: domain: KIX; not shown: GST tag
T15 sequence (P45481 586-665 Y650A limits assumed): as the sequence (P45481 586-665 Y650A limits assumed) above

[16] = molecular target: T1, HisKIX (His-tagged CBP KIX domain); test: fluorescence polarization; remark: listed apart in the source
Description: as §1

[17] = molecular target: T1, HisKIX (His-tagged CBP KIX domain); test: fluorescence polarization, HisKIX, 25 C
calmodulin (Sigma) [18] = test: fluorescence polarization; remark: listed apart in the source
[19] = molecular target: T1, HisKIX (His-tagged CBP KIX domain); test: fluorescence polarization; end tied to the member by the Kd of Table 1
Description: 6) Fluorescence polarization—Fluorescence polarization experiments were performed with a Photon Technology International QuantaMaster C-60 spectrofluorimeter at 25° C. in a 1 cm pathlength Hellma cuvette. […] Briefly, an aliquot of fluorescently labeled peptide was added to a final concentration of 25-50 nM and the binding reaction was incubated for 30 min at 25° C. Thirty minutes was a sufficient length of time for the binding reaction to reach equilibrium, as judged by an absence of change in the observed polarization value of the sample with the highest HisKIX concentration over 1 h. […] For specificity measurements, carbonic anhydrase II (Sigma) or calmodulin (Sigma) was used as the target protein in place of HisKIX, and fluorescently labeled peptide was used at a final concentration of 50 nM. Carbonic anhydrase was serially diluted in binding buffer as described for HisKIX.
The polarization data were fit using Kaleidagraph v3.51 software to equilibrium binding equation (1), derived from first principles.

B1: unlabeled KID-AB^P (peptide)
peptide: TDSQKRREILSRRP[pS]YRKILNDLSSDAPGVC-NH2
notes: also called CREB KID^P
- IC50 [1]: 2400 nM
- IC50 [2]: 3.2 µM
- IC50 (read off the curve) [3]: ~3 µM

B2: p4099, fluorescein-labelled (designed binder)
peptide: GPSQPTYPGDDAPVEDLIRFVGRLLAYFGDTINRYC(5‑iodoacetamidofluorescein)-NH2
notes: p4121-flu tied to p4099 by order and mass difference only; also called p4099 (GAGT); p4121-flu
- Kd [4]: 8.6 µM
- Kd (calmodulin (Sigma) [5]): 25 µM

B3: PPKID4^P (designed binder)
peptide: GPSQPTYPGDDAPVRRL[pS]FFYILLDLYLDAPGVC(acetamidofluorescein)-NH2
notes: also called PPKID4 (phosphorylated); wild type PPKID4^P
- Kd (calmodulin (Sigma) [6]): 51 µM
- Kd [7]: 106 µM
- ΔΔG against wild type CBP KIX (CBP KIX variant I657A): 0.89 kcal/mol
- ΔΔG against wild type CBP KIX (CBP KIX variant L603A): 1 kcal/mol
- ΔΔG against wild type CBP KIX (CBP KIX variant L599A): 0.58 kcal/mol
- ΔΔG against wild type CBP KIX (CBP KIX variant Q661A): 0.35 kcal/mol
- ΔΔG against wild type CBP KIX [8]: 0.93 kcal/mol
- ΔΔG against wild type CBP KIX (CBP KIX variant Y658F): 1.1 kcal/mol
- ΔΔG against wild type CBP KIX (CBP KIX variant E655A): -0.07 kcal/mol
- ΔΔG against wild type CBP KIX (CBP KIX variant K606A): 0.97 kcal/mol
- ΔΔG against wild type CBP KIX (CBP KIX variant Y658A): 1.1 kcal/mol
- ΔΔG against wild type CBP KIX (CBP KIX variant I660A): 0.35 kcal/mol
- ΔΔG against wild type CBP KIX [9]: 0.95 kcal/mol
- ΔΔG against wild type CBP KIX (CBP KIX variant K662A): 1.1 kcal/mol
- Kd (calmodulin (Sigma) [10]): 52 µM

B4: PPKID4^P variant F20A (designed binder)
peptide: H-GPSQPTYPGDDAPVRRL[pS]FAYILLDLYLDAPGVC(Fluorescein(5-NHCOCH2))-NH2
- ΔΔG against wild type PPKID4^P [11]: 0.85 kcal/mol

B5: PPKID4^P variant L17A (designed binder)
peptide: H-GPSQPTYPGDDAPVRRA[pS]FFYILLDLYLDAPGVC(Fluorescein(5-NHCOCH2))-NH2
- ΔΔG against wild type PPKID4^P [11]: 0.07 kcal/mol

B6: PPKID4^P variant L24A (designed binder)
peptide: H-GPSQPTYPGDDAPVRRL[pS]FFYILADLYLDAPGVC(Fluorescein(5-NHCOCH2))-NH2
- ΔΔG against wild type PPKID4^P [11]: 0.38 kcal/mol

B7: PPKID4^P variant L28A (designed binder)
peptide: H-GPSQPTYPGDDAPVRRL[pS]FFYILLDLYADAPGVC(Fluorescein(5-NHCOCH2))-NH2
- ΔΔG against wild type PPKID4^P [11]: 0.18 kcal/mol

B8: PPKID4^P variant P2A (designed binder)
peptide: H-GASQPTYPGDDAPVRRL[pS]FFYILLDLYLDAPGVC(Fluorescein(5-NHCOCH2))-NH2
- ΔΔG against wild type PPKID4^P [11]: 0.21 kcal/mol

B9: PPKID4^P variant P5A (designed binder)
peptide: H-GPSQATYPGDDAPVRRL[pS]FFYILLDLYLDAPGVC(Fluorescein(5-NHCOCH2))-NH2
- ΔΔG against wild type PPKID4^P [11]: 0.3 kcal/mol

B10: PPKID4^P variant P8A (designed binder)
peptide: H-GPSQPTYAGDDAPVRRL[pS]FFYILLDLYLDAPGVC(Fluorescein(5-NHCOCH2))-NH2
- ΔΔG against wild type PPKID4^P [11]: 0.33 kcal/mol

B11: PPKID4^P variant Y27A (designed binder)
peptide: H-GPSQPTYPGDDAPVRRL[pS]FFYILLDLALDAPGVC(Fluorescein(5-NHCOCH2))-NH2
- ΔΔG against wild type PPKID4^P [11]: 0.96 kcal/mol

B12: PPKID6 S18E (designed binder)
peptide: GISWPTFEGDDAPVRRLEFFYILLDLYLDAPGVC(acetamidofluorescein″)-NH2
- ΔΔG against PPKID6^U [12]: 1.2 kcal/mol

B13: PPKID6^P (designed binder)
peptide: GISWPTFEGDDAPVRRL[pS]FFYILLDLYLDAPGVC(acetamidofluorescein″)-NH2
notes: also called PPKID6 (phosphorylated)
- ΔΔG upon phosphorylation [12]: -0.5 kcal/mol

B14: PPKID6^U (designed binder)
peptide: GISWPTFEGDDAPVRRLSFFYILLDLYLDAPGVC(acetamidofluorescein)-NH2
notes: also called PPKID6 (unphosphorylated)
- Krel = Kd (CA)/Kd (HisKIX) [13]: 53
- Krel = Kd (CalM)/Kd (HisKIX) (calmodulin (Sigma) [14]): > 112
- Kd [7]: 79 µM
- Kd [15]: 712 nM
- ΔΔG against wild type CBP KIX (CBP KIX variant I657A): 1.1 kcal/mol
- ΔΔG against wild type CBP KIX (CBP KIX variant L603A): 0.91 kcal/mol
- ΔΔG against wild type CBP KIX (CBP KIX variant L599A): 1.1 kcal/mol
- ΔΔG against wild type CBP KIX (CBP KIX variant Q661A): -0.16 kcal/mol
- ΔΔG against wild type CBP KIX [8]: -0.8 kcal/mol
- ΔΔG against wild type CBP KIX (CBP KIX variant Y658F): 0.97 kcal/mol
- ΔΔG against wild type CBP KIX (CBP KIX variant E655A): 0.68 kcal/mol
- ΔΔG against wild type CBP KIX (CBP KIX variant K606A): 0.47 kcal/mol
- ΔΔG against wild type CBP KIX (CBP KIX variant Y658A): 0.68 kcal/mol
- ΔΔG against wild type CBP KIX (CBP KIX variant I660A): 1.4 kcal/mol
- ΔΔG against wild type CBP KIX [9]: 0.52 kcal/mol
- ΔΔG against wild type CBP KIX (CBP KIX variant K662A): 0.71 kcal/mol
- Kd (calmodulin (Sigma) [10]): > 168 µM

B15: peptide C^P (chimeric α-helical portion of the PPKID peptides, residues 15-33, phosphorylated) (peptide)
peptide: RRL[pS]FFYILLDLYLDAPGVC(acetamidofluorescein)-NH2
- Kd [16]: 2400 nM
- Krel = Kd (CA)/Kd (HisKIX) [13]: 40
- Krel = Kd (CalM)/Kd (HisKIX) (calmodulin (Sigma) [14]): 74
- Kd [17]: 2400 nM
- ΔΔG against KID-B^P [12]: -1.8 kcal/mol
- fold lower affinity than PPKID4^P (calmodulin (Sigma) [18]): 4 fold
- Kd (calmodulin (Sigma) [10]): 178 µM

B16: Bak peptide, fluorescein-labelled (Bak-flu) (peptide)
peptide: GQVGRQLAIIGDDINRYC(5‑iodoacetamidofluorescein)-NH2
notes: also called Bak BH3 peptide; Bak 72-94
- Kd [4]: 22 µM
- Kd (calmodulin (Sigma) [5]): 25 µM

B17: peptide C^U (peptide)
peptide: RRLSFFYILLDLYLDAPGVC(acetamidofluorescein)-NH2
- Krel = Kd (CA)/Kd (HisKIX) [13]: 3
- ΔΔG against KID-B^U [12]: ≥ -1.5 kcal/mol

B18: PPKID3^U (designed binder)
peptide: GASPHTSSGDDAPVRRLSFFDILLDLYLDAPGVC(acetamidofluorescein″)-NH2
notes: also called PPKID3 (unphosphorylated)
- ΔΔG against peptide C^U [19]: -0.7 kcal/mol

B19: PPKID1^U (designed binder)
peptide: GASDMTYWGDDAPVRRLSFFYILLDLYLDAPGVC(acetamidofluorescein″)-NH2
notes: also called PPKID1 (unphosphorylated)
- ΔΔG against peptide C^U [19]: 0.1 kcal/mol
